Measurements: patent US20240353401, “Compositions and methods for detecting SARS-CoV-2 spike protein” (UNICORNFISH PTY LTD AS TRUSTEE FOR RCX UNIT TRUST, published 2024)

B1: DNA aptamer 3 (ssDNA)
DNA: ATCCAGAGTGACGCAGCACTGCGTAGGCGCGGCCAATGTGTAGGATTGCTCAGGTCTGCTGGACACGGTGGCTTAGT
B2: DNA aptamer 8 (ssDNA)
DNA: ATCCAGAGTGACGCAGCATTTCATCGGGTCCAAAAGGGGCTGCTCGGGATTGCGGATATGGACACGT
B3: DNA aptamer 2 (ssDNA)
DNA: ATCCAGAGTGACGCAGCATCGAGTGGTGGGCTGGTCGGGTTTGGATTCCCTTAGATGCTGGACACGGTGGCTTAGT
B4: DNA aptamer 7 (ssDNA)
DNA: CAGCACCGACCTTGTGCTTTGGGAGTGCTGGTCCAAGGGCGTTAATGGACA
B5: DNA aptamer 4 (ssDNA)
DNA: ATCCAGAGTGACGCAGCATTTCATCGGGTCCAAAAGGGGCTGCTCGGGATTGCGGATATGGACACGGTGGCTTAGT
B6: DNA aptamer 6 (ssDNA)
DNA: ATCCAGAGTGACGCAGCAGTAGGGGGATTGGCTCCAGGGCCTGGCTGACGGTTGCACGTGGACACGGTGGCTTAGT
B7: DNA aptamer 5 (ssDNA)
DNA: ATCCAGAGTGACGCAGCAGGACTGCTTAGGATTGCGAAGCTGAGGAGCTCCCCCGCCTTGGACACGGTGGCTTAGT

Columns and labels:
SARS-CoV-2 spike protein = SARS-CoV-2 spike protein (SARS-CoV-2, UniProt P0DTC2 P0DTC2:14-1213); assay: cell-based or functional assay
HCoV-NL63 spike protein = HCoV-NL63 spike protein (Human coronavirus NL63, UniProt Q6Q1S2 Q6Q1S2:19-1296)
HCoV-229E spike protein = HCoV-229E spike protein (Human coronavirus 229E, UniProt P15423 P15423:16-1115)
HCoV-229E spike protein, sequence (P15423 16-1115, one chain of several): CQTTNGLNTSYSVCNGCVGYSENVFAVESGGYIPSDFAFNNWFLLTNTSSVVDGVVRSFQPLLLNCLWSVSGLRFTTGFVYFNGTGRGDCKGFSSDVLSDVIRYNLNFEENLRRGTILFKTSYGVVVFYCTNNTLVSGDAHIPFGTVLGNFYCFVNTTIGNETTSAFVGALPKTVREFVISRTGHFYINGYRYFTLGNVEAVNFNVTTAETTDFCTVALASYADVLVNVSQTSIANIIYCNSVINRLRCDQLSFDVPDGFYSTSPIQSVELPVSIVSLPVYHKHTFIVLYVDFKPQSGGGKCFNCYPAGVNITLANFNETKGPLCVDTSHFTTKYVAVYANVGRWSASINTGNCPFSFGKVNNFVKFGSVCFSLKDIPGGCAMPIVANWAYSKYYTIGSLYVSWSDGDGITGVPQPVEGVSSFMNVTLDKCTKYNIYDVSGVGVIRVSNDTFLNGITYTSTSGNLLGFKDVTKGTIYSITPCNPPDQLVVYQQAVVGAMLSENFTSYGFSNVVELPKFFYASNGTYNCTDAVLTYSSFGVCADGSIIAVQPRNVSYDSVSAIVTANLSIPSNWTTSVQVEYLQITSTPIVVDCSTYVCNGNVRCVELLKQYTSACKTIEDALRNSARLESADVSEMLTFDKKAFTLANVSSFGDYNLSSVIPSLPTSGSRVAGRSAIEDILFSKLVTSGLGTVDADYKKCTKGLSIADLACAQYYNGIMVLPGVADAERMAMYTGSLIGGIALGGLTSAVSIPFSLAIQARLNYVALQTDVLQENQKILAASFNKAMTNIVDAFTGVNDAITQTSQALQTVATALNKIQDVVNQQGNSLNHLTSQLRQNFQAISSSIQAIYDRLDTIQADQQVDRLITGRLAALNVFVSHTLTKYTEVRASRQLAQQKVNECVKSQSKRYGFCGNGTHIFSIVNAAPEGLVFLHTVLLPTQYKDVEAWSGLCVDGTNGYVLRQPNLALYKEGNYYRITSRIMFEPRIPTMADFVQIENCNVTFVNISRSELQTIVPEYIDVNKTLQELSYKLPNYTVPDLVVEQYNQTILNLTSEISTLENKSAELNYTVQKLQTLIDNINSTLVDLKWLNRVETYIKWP

HCoV-NL63 spike protein, sequence (Q6Q1S2 19-1296, one chain of several): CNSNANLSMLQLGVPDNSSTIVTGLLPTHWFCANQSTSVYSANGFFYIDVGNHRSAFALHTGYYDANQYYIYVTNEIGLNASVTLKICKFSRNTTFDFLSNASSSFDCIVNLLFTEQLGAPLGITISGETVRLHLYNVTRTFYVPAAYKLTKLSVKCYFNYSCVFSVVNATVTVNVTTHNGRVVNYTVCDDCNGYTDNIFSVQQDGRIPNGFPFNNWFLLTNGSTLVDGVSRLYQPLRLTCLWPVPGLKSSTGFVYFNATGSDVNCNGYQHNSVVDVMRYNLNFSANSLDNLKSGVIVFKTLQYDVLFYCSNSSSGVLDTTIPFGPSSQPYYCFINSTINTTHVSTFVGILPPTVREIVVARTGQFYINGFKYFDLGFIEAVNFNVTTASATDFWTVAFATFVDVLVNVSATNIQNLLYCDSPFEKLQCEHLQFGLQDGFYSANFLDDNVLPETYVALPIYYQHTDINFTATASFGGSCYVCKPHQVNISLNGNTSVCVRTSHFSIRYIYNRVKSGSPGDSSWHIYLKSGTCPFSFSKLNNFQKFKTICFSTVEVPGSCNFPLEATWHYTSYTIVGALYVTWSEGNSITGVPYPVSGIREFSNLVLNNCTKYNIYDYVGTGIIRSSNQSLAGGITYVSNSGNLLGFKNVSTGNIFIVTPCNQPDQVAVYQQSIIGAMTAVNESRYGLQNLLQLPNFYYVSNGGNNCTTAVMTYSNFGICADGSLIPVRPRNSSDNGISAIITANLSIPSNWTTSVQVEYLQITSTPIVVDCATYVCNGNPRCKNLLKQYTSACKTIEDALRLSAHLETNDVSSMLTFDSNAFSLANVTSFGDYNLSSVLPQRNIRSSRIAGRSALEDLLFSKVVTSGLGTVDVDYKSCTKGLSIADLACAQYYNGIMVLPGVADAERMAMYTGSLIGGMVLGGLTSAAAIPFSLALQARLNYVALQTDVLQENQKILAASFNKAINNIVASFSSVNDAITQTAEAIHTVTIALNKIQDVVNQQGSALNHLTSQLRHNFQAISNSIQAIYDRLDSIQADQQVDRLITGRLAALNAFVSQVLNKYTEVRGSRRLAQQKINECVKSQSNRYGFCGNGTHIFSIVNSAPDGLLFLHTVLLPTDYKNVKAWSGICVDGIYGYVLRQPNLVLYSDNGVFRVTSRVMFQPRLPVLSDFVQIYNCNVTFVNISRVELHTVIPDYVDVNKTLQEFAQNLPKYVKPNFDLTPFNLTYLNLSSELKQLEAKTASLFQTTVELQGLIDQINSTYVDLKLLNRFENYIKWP

Row | Binder | activity (SARS-CoV-2 spike protein) [nM] | binding result (HCoV-NL63 spike protein) | binding result (HCoV-229E spike protein)
1 | B1 | 10 |  | 
2 | B2 | 8.9 |  | 
3 | B3 | 8 |  | 
4 | B4 |  | no binding | no binding
5 | B5 | 9 |  | 
6 | B6 | 7.8 |  | 
7 | B7 | 9.7 |  | 
